Data from PMC3730827 (Cell, 2013).

How the values were obtained:
Test in all cases: cryo-EM structure
[1] = target: ribosomal protein S3e (rabbit 40S subunit) (rabbit, UniProt G1TNM3 1-243)
[2] = target: ribosomal protein S10e (rabbit 40S subunit) (rabbit, UniProt G1T168 1-165)
[3] = target: ribosomal protein S12e (rabbit 40S subunit) (rabbit, UniProt G1SFR8 1-132)
[4] = target: ribosomal protein S23e (rabbit 40S subunit) (rabbit, UniProt G1SZ47 1-143)

Measured: binding result

B1: DHX29, recombinant human (enzyme)
chain: MGGKNKKHKAPAAAVVRAAVSASRAKSAEAGIAGEAQSKKPVSRPATAAAAAAGSREPRVKQGPKIYSFNSTNDSSGPANLDKSILKVVINNKLEQRIIGVINEHKKQNNDKGMISGRLTAKKLQDLYMALQAFSFKTKDIEDAMTNTLLYGGDLHSALDWLCLNLSDDALPEGFSQEFEEQQPKSRPKFQSPQIQATISPPLQPKTKTYEEDPKSKPKKEEKNMEVNMKEWILRYAEQQNEEEKNENSKSLEEEEKFDPNERYLHLAAKLLDAKEQAATFKLEKNKQGQKEAQEKIRKFQREMETLEDHPVFNPAMKISHQQNERKKPPVATEGESALNFNLFEKSAAATEEEKDKKKEPHDVRNFDYTARSWTGKSPKQFLIDWVRKNLPKSPNPSFEKVPVGRYWKCRVRVIKSEDDVLVVCPTILTEDGMQAQHLGATLALYRLVKGQSVHQLLPPTYRDVWLEWSDAEKKREELNKMETNKPRDLFIAKLLNKLKQQQQQQQQHSENKRENSEDPEESWENLVSDEDFSALSLESANVEDLEPVRNLFRKLQSTPKYQKLLKERQQLPVFKHRDSIVETLKRHRVVVVAGETGSGKSTQVPHFLLEDLLLNEWEASKCNIVCTQPRRISAVSLANRVCDELGCENGPGGRNSLCGYQIRMESRACESTRLLYCTTGVLLRKLQEDGLLSNVSHVIVDEVHERSVQSDFLLIILKEILQKRSDLHLILMSATVDSEKFSTYFTHCPILRISGRSYPVEVFHLEDIIEETGFVLEKDSEYCQKFLEEEEEVTINVTSKAGGIKKYQEYIPVQTGAHADLNPFYQKYSSRTQHAILYMNPHKINLDLILELLAYLDKSPQFRNIEGAVLIFLPGLAHIQQLYDLLSNDRRFYSERYKVIALHSILSTQDQAAAFTLPPPGVRKIVLATNIAETGITIPDVVFVIDTGRTKENKYHESSQMSSLVETFVSKASALQRQGRAGRVRDGFCFRMYTRERFEGFMDYSVPEILRVPLEELCLHIMKCNLGSPEDFLSKALDPPQLQVISNAMNLLRKIGACELNEPKLTPLGQHLAALPVNVKIGKMLIFGAIFGCLDPVATLAAVMTEKSPFTTPIGRKDEADLAKSALAMADSDHLTIYNAYLGWKKARQEGGYRSEITYCRRNFLNRTSLLTLEDVKQELIKLVKAAGFSSSTTSTSWEGNRASQTLSFQEIALLKAVLVAGLYDNVGKIIYTKSVDVTEKLACIVETAQGKAQVHPSSVNRDLQTHGWLLYQEKIRYARVYLRETTLITPFPVLLFGGDIEVQHRERLLSIDGWIYFQAPVKIAVIFKQLRVLIDSVLRKKLENPKMSLENDKILQIITELIKTENN
binds: [1] | [2] | [3] | [4]
